Measurements published in US20260167699A1 (Chugai, published 2026).

T1: FcγRIIb (human, UniProt P31994 43-217)
T1 construct: extracellular domain; also called 2b
T1 sequence: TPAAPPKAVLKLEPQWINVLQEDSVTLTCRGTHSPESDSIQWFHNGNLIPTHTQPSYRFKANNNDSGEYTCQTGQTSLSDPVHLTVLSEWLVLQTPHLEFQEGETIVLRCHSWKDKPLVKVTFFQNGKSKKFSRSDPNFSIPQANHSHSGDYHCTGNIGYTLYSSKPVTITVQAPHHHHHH

T2: FcγRIIa(H) (human, UniProt P12318 34-217)
T2 construct: extracellular domain; also called 2aH
T2 sequence: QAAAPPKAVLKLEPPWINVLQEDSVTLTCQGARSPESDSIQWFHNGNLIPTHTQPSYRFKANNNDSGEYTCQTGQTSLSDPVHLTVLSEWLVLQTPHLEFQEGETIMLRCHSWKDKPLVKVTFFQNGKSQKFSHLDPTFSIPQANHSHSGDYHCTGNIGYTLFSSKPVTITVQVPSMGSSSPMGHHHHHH

T3: FcγRIIa(R) (human, UniProt P12318 34-217)
T3 construct: extracellular domain; also called 2aR
T3 sequence: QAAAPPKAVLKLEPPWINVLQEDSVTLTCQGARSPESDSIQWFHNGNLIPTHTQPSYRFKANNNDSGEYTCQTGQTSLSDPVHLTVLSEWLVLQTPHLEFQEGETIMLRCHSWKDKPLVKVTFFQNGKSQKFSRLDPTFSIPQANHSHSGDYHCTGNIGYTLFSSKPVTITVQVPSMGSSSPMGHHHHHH


Experiments:
Assay in all cases: SPR, relative to GpH7-A5/GpH7-B3/GpL16-k0 =100
FcγRIIb = target: T1, FcγRIIb
FcγRIa = target: T4, FcγRIa (human, UniProt P12314 16-292)
T4 construct: extracellular domain; also called 1a
T4 sequence (P12314 other isoform, or with tags, fused parts or gaps): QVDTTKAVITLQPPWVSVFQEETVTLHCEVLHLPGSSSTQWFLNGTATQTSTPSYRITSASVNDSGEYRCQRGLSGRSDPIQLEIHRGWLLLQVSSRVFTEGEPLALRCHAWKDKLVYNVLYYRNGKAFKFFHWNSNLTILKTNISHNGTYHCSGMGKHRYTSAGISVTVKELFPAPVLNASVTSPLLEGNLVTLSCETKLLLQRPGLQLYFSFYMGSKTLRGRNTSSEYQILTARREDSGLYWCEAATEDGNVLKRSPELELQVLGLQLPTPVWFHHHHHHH

FcγRIIa(H) = target: T2, FcγRIIa(H)
FcγRIIa(R) = target: T3, FcγRIIa(R)

Binder	He/Con 2b (FcγRIIb) [%]	He/Con 1a (FcγRIa) [%]	He/Con 2aH (FcγRIIa(H)) [%]	He/Con 2aR (FcγRIIa(R)) [%]
GpH7-A5/GpH7-B3 variant A327_13S/GpL16-k0 (antibody, human IgG1, kappa, He Ab: heterodimerized IgG1, one H chain mutated) heavy 1: not shown heavy 2: not shown light: DIVMTQSPLSLPVTPGEPASISCQASESLVHSNRNTYLHWYLQKPGQSPQLLIYKVSNRFSGVPDRFSGSGSGTDFTLKISRVEAEDVGVYYCSQNTHVPPTFGQGTKVEIERTVAAPSVFIFPPSDEQLKSGTASVVCLLNNFYPREAKVQWKVDNALQSGNSQESVTEQDSKDSTYSLSSTLTLSKADYEKHKVYACEVTHQGLSSPVTKSFNRGEC	99	105	84.4	98.6
GpH7-A5/GpH7-B3 variant A327_18N/GpL16-k0 (antibody, human IgG1, kappa, He Ab: heterodimerized IgG1, one H chain mutated) heavy 1: not shown heavy 2: not shown light: DIVMTQSPLSLPVTPGEPASISCQASESLVHSNRNTYLHWYLQKPGQSPQLLIYKVSNRFSGVPDRFSGSGSGTDFTLKISRVEAEDVGVYYCSQNTHVPPTFGQGTKVEIERTVAAPSVFIFPPSDEQLKSGTASVVCLLNNFYPREAKVQWKVDNALQSGNSQESVTEQDSKDSTYSLSSTLTLSKADYEKHKVYACEVTHQGLSSPVTKSFNRGEC	141	100	79	114
GpH7-A5/GpH7-B3 variant A327_19Q/GpL16-k0 (antibody, human IgG1, kappa, He Ab: heterodimerized IgG1, one H chain mutated) heavy 1: not shown heavy 2: not shown light: DIVMTQSPLSLPVTPGEPASISCQASESLVHSNRNTYLHWYLQKPGQSPQLLIYKVSNRFSGVPDRFSGSGSGTDFTLKISRVEAEDVGVYYCSQNTHVPPTFGQGTKVEIERTVAAPSVFIFPPSDEQLKSGTASVVCLLNNFYPREAKVQWKVDNALQSGNSQESVTEQDSKDSTYSLSSTLTLSKADYEKHKVYACEVTHQGLSSPVTKSFNRGEC	67.5	98.5	79.6	77.7
GpH7-A5/GpH7-B3 variant A327_20W/GpL16-k0 (antibody, human IgG1, kappa, He Ab: heterodimerized IgG1, one H chain mutated) heavy 1: not shown heavy 2: not shown light: DIVMTQSPLSLPVTPGEPASISCQASESLVHSNRNTYLHWYLQKPGQSPQLLIYKVSNRFSGVPDRFSGSGSGTDFTLKISRVEAEDVGVYYCSQNTHVPPTFGQGTKVEIERTVAAPSVFIFPPSDEQLKSGTASVVCLLNNFYPREAKVQWKVDNALQSGNSQESVTEQDSKDSTYSLSSTLTLSKADYEKHKVYACEVTHQGLSSPVTKSFNRGEC	98.2	100	76.6	95.9
GpH7-A5/GpH7-B3 variant A330_01G/GpL16-k0 (antibody, human IgG1, kappa, He Ab: heterodimerized IgG1, one H chain mutated) heavy 1: not shown heavy 2: not shown light: DIVMTQSPLSLPVTPGEPASISCQASESLVHSNRNTYLHWYLQKPGQSPQLLIYKVSNRFSGVPDRFSGSGSGTDFTLKISRVEAEDVGVYYCSQNTHVPPTFGQGTKVEIERTVAAPSVFIFPPSDEQLKSGTASVVCLLNNFYPREAKVQWKVDNALQSGNSQESVTEQDSKDSTYSLSSTLTLSKADYEKHKVYACEVTHQGLSSPVTKSFNRGEC	117	109	107	122
GpH7-A5/GpH7-B3 variant A330_03V/GpL16-k0 (antibody, human IgG1, kappa, He Ab: heterodimerized IgG1, one H chain mutated) heavy 1: not shown heavy 2: not shown light: DIVMTQSPLSLPVTPGEPASISCQASESLVHSNRNTYLHWYLQKPGQSPQLLIYKVSNRFSGVPDRFSGSGSGTDFTLKISRVEAEDVGVYYCSQNTHVPPTFGQGTKVEIERTVAAPSVFIFPPSDEQLKSGTASVVCLLNNFYPREAKVQWKVDNALQSGNSQESVTEQDSKDSTYSLSSTLTLSKADYEKHKVYACEVTHQGLSSPVTKSFNRGEC	59.2	109	86.1	84
GpH7-A5/GpH7-B3 variant A330_04F/GpL16-k0 (antibody, human IgG1, kappa, He Ab: heterodimerized IgG1, one H chain mutated) heavy 1: not shown heavy 2: not shown light: DIVMTQSPLSLPVTPGEPASISCQASESLVHSNRNTYLHWYLQKPGQSPQLLIYKVSNRFSGVPDRFSGSGSGTDFTLKISRVEAEDVGVYYCSQNTHVPPTFGQGTKVEIERTVAAPSVFIFPPSDEQLKSGTASVVCLLNNFYPREAKVQWKVDNALQSGNSQESVTEQDSKDSTYSLSSTLTLSKADYEKHKVYACEVTHQGLSSPVTKSFNRGEC	105	110	104	112
GpH7-A5/GpH7-B3 variant A330_07I/GpL16-k0 (antibody, human IgG1, kappa, He Ab: heterodimerized IgG1, one H chain mutated) heavy 1: not shown heavy 2: not shown light: DIVMTQSPLSLPVTPGEPASISCQASESLVHSNRNTYLHWYLQKPGQSPQLLIYKVSNRFSGVPDRFSGSGSGTDFTLKISRVEAEDVGVYYCSQNTHVPPTFGQGTKVEIERTVAAPSVFIFPPSDEQLKSGTASVVCLLNNFYPREAKVQWKVDNALQSGNSQESVTEQDSKDSTYSLSSTLTLSKADYEKHKVYACEVTHQGLSSPVTKSFNRGEC	75.8	109	94.4	96
